In patent US20220332804A1 (CSL INNOVATION, published 2022) one finds Fold diff data, which are given here for 1 molecule.

Holding throughout (assay): SPR, KD relative to WT C2;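 note: biacore SPR at 37 °C, anti-C2 mAbs captured on anti-human IgG chips with alanine or serine point mutants of C2 as analyte, KD from 1:1 fit compared with wild-type C2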
A general note: In SPR one partner is held on a chip, and binding of the other changes the refractive index at the surface.

The target in assay [1] is T1, human C2 I438A (human, UniProt P06681 21-752).
T1 sequence: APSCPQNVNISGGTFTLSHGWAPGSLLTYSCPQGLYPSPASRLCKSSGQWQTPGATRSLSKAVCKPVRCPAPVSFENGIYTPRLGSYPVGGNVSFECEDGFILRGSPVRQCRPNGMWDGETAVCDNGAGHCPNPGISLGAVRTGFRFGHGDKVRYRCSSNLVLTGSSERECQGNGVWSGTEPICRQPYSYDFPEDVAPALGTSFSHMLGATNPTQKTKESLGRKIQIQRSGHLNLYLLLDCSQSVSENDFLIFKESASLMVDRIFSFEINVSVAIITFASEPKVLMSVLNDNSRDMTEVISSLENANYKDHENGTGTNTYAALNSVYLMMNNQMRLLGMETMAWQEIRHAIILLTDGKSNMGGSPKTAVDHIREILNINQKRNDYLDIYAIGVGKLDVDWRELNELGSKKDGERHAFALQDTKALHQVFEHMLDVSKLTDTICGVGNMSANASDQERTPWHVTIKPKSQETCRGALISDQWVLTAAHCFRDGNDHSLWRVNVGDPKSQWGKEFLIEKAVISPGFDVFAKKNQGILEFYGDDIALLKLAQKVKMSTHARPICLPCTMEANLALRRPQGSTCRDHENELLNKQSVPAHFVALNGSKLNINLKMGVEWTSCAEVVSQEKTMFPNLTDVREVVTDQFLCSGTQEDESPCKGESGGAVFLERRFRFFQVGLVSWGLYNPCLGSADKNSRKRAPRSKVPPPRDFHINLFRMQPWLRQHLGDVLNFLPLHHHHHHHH

The target in assay [2] is T2, human C2 M452A (human, UniProt P06681 21-752).
T2 sequence: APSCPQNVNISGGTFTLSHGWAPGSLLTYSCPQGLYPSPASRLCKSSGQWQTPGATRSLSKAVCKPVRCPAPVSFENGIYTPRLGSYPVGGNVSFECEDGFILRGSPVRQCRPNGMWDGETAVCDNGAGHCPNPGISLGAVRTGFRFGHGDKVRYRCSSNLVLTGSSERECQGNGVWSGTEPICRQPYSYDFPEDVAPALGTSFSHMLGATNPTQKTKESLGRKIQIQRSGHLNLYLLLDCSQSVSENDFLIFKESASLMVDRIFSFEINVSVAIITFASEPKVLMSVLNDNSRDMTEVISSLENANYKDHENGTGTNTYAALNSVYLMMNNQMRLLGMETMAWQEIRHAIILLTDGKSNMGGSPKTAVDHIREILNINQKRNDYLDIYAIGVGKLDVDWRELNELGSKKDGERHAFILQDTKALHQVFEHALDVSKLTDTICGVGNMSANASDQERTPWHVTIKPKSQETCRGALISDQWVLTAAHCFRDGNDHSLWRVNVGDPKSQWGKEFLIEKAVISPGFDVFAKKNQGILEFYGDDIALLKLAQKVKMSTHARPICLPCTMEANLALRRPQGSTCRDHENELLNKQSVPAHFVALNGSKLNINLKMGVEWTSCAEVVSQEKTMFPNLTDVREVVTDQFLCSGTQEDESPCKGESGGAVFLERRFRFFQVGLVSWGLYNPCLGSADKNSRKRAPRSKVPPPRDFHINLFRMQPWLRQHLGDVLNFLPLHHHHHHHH

Assay [3] has as its target T3, human C2 N467A (human, UniProt P06681 21-752).
T3 sequence: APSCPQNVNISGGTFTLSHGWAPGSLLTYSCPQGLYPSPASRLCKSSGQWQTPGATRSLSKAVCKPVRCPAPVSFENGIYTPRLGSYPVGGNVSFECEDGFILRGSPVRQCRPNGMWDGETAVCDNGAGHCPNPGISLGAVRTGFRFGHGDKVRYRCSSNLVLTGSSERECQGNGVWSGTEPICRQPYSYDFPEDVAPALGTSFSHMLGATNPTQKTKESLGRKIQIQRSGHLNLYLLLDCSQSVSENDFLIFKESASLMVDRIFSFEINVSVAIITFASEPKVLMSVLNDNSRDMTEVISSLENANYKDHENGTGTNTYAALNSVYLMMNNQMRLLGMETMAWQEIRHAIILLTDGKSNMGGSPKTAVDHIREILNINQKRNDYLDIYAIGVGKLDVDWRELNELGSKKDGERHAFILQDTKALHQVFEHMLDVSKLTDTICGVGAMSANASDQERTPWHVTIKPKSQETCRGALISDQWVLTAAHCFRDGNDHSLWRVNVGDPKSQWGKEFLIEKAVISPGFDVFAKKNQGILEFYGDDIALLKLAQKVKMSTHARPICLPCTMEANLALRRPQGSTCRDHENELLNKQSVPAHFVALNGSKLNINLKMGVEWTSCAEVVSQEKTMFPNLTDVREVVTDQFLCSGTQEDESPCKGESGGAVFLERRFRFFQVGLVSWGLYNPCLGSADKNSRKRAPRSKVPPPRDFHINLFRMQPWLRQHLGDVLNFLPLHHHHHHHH

For assay [4], the target named is T4, human C2 R493A (human, UniProt P06681 21-752).
T4 sequence: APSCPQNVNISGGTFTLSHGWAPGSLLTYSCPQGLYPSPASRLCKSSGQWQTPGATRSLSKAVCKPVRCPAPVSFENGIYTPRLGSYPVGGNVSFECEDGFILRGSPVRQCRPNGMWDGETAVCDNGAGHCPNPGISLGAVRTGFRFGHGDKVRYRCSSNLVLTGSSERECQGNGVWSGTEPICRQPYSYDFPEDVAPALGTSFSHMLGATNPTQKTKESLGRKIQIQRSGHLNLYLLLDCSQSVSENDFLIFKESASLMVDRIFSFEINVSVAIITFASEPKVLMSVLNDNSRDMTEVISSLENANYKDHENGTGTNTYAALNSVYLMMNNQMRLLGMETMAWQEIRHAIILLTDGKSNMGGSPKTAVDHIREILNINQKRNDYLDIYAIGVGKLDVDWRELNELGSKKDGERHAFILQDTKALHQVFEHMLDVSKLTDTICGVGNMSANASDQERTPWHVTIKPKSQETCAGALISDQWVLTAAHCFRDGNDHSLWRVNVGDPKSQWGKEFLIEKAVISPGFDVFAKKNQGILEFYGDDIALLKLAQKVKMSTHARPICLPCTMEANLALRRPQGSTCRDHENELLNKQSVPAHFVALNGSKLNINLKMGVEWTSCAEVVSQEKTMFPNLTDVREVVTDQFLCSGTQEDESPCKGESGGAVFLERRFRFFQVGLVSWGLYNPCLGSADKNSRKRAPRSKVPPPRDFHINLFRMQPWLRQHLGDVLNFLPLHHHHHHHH

B1: RF16-242 (antibody, human IgG4 S228P, lambda, V domains shown)
VH: EVQLLQSGAEVKKPGESLKISCKGSGYSFTSYWIGWVRQMPGKGLEWMGIIYPGDSDTRYSPSFQGQVTISADKSISTAYLQWSSLKASDTAMYYCARRGHYGDYFDYWGQGTLVTVSS
VL: SYELTQPPSVSVSPGQTARITCSGDALPKKYAYWYHQKSGQAPVLVIYEDRRRPSEIPERFSGSSSGTMATLTITGAQVEDEGVYFCYSRDRAGNQRVFGGGTQLTVLG
notes: pH-dependent anti-C2 antibody from a phage display library
Take B1: the Fold diff is 1 fold in assay [1], 1 fold in assay [2], 2 fold in assay [3] and 1 fold in assay [4].
